Measured values published in patent US20140336113A1 (VANDERBILT UNIVERSITY, published 2014).
Blank lines part the entries; values can stand above or below the binder they belong to. Positions of bridges follow the written chain, without caps; N, C: chain ends. No end group written: not given here. *: point of attachment. Biotin = O=C1N[C@H]2[C@H](CS[C@H]2CCCCC(=O)*)N1

Tests used:
GAPDH = molecular target: T1, GAPDH (human, UniProt P04406 2-335); test: pull-down from human Jurkat T cell lysate, immunoblot
T1 construct: Cellular protein control of the pull-down; also called control cytoplasmic marker protein GAPDH; control protein GAPDH
T1 sequence (P04406 2-335 limits assumed): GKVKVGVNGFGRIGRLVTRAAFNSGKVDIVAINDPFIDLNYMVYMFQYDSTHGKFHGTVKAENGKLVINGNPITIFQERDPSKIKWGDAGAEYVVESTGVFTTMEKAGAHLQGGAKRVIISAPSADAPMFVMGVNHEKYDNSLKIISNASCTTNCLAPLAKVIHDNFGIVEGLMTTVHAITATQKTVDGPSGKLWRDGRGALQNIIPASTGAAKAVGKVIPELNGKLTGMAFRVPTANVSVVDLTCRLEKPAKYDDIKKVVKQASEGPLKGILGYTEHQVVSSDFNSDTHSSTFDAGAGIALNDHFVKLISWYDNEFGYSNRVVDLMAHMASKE
Experimental: (§1) Cell-penetrating peptide cSN50.1 (2986 Da) and other peptides listed in Table 1 were synthesized and prepared as previously described (Liu, D., et al., (2009) Mol Ther 17, 796-802). Biotinylated NTM peptides and their constituent modules were prepared in the same manner, with biotin added to the amino terminus at the last step of synthesis. When necessary, a 5-7 hydrophilic amino acid tag was added to peptide modules to facilitate solubility. For i.p. administration, 200 μl aliquots containing 0.4 or 0.7 mg of cSN50.1 in saline was injected at 8 h or 12 h intervals. Alternatively, 10 mg cSN50.1 in 100 μl sterile H₂O was administered subcutaneously from ALZET Osmotic Pumps (1007D) placed aseptically in interscapular areas. A bolus of 0.7 mg cSN50.1 in 100 μl saline was administered i.p. at weekly pump changes to assure steady NTM bioavailability. Dosage schedules were developed based on previous experimental protocols and half-life studies. Control mice received sterile saline in the same volumes as NTM. Importins pull-down assay. Ten nmols of biotinylated NTM peptides or their constituent modules depicted in Table 1 (SN50, cSN50.1, N50, cN50.1, SSHR-1, SSHR-2) were incubated overnight at 4° C. with 1.5 mg of whole cell extract from unstimulated human Jurkat T cells or serum-starved human HepG2 cells lysed in binding buffer (10 mM HEPES at pH 7.9, 150 mM NaCl, 10 mM KCl, 2.5 mM MgCl₂, 1 mM EGTA, 1 mM DTT, 0.1% NP-40, 1% protease inhibitor cocktail). Lysate was cleared by centrifugation (16,000×g for 30 min at 4° C.) and transferred to a fresh tube containing high capacity Neutravidin beads (Thermo Scientific). After 4 h, beads were separated from lysate/peptide mixture by centrifugation (30 s at 1,000×g) and washed 3 times with binding buffer and 2 times with PBS. Beads were boiled for 10 min in SDS loading buffer, and protein content was analyzed by immunoblotting with a panel of anti-importins alpha and beta antibodies and anti-GAPDH (Abcam) as a cellular protein control.

importin alpha 5 = molecular target: T2, importin alpha 5 (human, UniProt P52294 1-538); test: pull-down from cell lysate, immunoblot
T2 construct: also called importins alpha; importins/karyopherins alpha

importin alpha 1 = importin alpha 1 (human, UniProt P52292 2-529); test: pull-down from cell lysate, immunoblot
importin beta = molecular target: T3, importin beta (human, UniProt Q14974 1-876); test: pull-down from human Jurkat T cell lysate, immunoblot
T3 construct: also called imp beta; nuclear transport shuttle for SREBPs
T3 sequence (Q14974 whole entry): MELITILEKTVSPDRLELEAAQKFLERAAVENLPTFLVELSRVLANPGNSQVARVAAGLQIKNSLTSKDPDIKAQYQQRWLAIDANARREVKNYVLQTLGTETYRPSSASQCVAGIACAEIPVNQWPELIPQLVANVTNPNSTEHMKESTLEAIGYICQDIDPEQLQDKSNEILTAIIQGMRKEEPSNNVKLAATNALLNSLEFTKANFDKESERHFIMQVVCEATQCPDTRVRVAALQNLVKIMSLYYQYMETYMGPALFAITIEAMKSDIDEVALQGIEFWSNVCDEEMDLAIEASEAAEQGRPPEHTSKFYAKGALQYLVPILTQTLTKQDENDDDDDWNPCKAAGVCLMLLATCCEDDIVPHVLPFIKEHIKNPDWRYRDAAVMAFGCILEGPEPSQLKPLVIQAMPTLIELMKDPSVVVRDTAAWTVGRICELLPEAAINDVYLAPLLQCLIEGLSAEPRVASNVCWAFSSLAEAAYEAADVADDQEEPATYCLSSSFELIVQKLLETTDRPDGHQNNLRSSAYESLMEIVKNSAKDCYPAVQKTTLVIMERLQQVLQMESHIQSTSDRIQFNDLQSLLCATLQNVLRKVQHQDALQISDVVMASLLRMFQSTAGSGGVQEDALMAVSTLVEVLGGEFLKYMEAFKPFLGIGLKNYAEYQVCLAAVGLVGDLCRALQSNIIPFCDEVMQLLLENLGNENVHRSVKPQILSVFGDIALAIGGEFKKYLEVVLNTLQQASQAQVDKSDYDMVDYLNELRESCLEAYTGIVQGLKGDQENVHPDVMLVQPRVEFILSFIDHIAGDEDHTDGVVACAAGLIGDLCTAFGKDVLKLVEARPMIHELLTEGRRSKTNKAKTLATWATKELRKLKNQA
Experimental: as §1

B1: biotinylated cSN50.1 peptide (peptide)
peptide: Biotin-AAVALLPAVLLALLAPCVQRKRQKLMPC
modifications: disulfide 17-28 (inferred)
notes: the N-biotinylated version was used in the pull-down assays; also called NTM; full-length biotinylated NTM
binding result (GAPDH): no binding

B2: biotinylated cSN50.1 Beta peptide (peptide)
peptide: Biotin-AAVALLPAVLLALLAPCVQRDEQKLMPC
modifications: disulfide 17-28 (inferred)
notes: cSN50.1 with lysine 21 replaced by aspartic acid and arginine 22 replaced by glutamic acid
binding result (importin alpha 5): no binding | binding result (importin alpha 1): no binding

B3: biotinylated SN50 peptide (peptide)
peptide: Biotin-AAVALLPAVLLALLAPVQRKRQKLMP
notes: also called NTM; full-length biotinylated NTM
binding result (GAPDH): no binding

Results, then the binder that gave them:

binding result (importin beta): no binding
Binder: Biotin-VQRKRQKLMP (NLS segment of SN50, no SSHR) [biotinylated N50 peptide]

binding result (importin beta): no binding
Binder: Biotin-CVQRKRQKLMPC (disulfide 1-12 (inferred), NLS segment of cSN50.1, no SSHR) [biotinylated cN50.1 peptide]
